Values quoted from earlier work in paper PMC4698235.

Columns and labels:
IDE (Homo sapiens) = IDE (Homo sapiens) (UniProt P14735)
insulin (Homo sapiens) = insulin (Homo sapiens) (UniProt P01308)
UniProt P01308, sequence (P01308 90-110): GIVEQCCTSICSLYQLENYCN

Kd (IDE (Homo sapiens)): 10 nM | Kd (insulin (Homo sapiens)): 10 nM
Substance: IDE (from UniProt P14735)
